Data from patent publication US20140087995A1 (published 2014).
Where two headings read alike, the source gives them in different places. Numbered stars: 1 amine (or outer) side, 2 acyl side, 3 side chain; on linkers, the order of the positions; unused ones are H or OH. Bridge positions count the residues as written; N and C are the ends. Side chains are listed from the residue outwards. Ends that are not written are not given here. * marks the point of attachment. C20 diacid = O=C(O)CCCCCCCCCCCCCCCCCCC(=O)*; γGlu = O=C(O)[C@H](CCC(=O)[*:2])N[*:1]; AEEA = NCCOCCOCC(=O)O

T1: human amylin 3(a) receptor (human calcitonin receptor plus RAMP-3) (human, UniProt P30988 25-474; O60896 24-148, limits assumed)
T1 sequence (looked up) 1: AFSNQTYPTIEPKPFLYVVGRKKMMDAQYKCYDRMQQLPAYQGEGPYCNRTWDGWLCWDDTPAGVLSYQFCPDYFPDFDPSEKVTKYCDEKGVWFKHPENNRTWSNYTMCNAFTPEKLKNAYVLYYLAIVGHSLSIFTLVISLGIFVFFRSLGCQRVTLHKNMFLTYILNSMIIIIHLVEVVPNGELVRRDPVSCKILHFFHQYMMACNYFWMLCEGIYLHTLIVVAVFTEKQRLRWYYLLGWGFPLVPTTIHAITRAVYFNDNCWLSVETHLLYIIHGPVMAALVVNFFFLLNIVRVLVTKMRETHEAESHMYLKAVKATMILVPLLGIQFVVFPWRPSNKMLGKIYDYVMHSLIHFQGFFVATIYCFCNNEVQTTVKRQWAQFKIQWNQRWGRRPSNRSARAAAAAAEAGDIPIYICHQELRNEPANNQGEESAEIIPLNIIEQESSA
T1 sequence (looked up) 2: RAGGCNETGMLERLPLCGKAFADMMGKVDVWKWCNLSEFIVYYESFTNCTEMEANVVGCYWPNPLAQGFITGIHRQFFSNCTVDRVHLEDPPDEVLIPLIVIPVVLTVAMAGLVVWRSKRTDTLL

T2: human calcitonin receptor (human, UniProt P30988 25-474)
T2 sequence (looked up): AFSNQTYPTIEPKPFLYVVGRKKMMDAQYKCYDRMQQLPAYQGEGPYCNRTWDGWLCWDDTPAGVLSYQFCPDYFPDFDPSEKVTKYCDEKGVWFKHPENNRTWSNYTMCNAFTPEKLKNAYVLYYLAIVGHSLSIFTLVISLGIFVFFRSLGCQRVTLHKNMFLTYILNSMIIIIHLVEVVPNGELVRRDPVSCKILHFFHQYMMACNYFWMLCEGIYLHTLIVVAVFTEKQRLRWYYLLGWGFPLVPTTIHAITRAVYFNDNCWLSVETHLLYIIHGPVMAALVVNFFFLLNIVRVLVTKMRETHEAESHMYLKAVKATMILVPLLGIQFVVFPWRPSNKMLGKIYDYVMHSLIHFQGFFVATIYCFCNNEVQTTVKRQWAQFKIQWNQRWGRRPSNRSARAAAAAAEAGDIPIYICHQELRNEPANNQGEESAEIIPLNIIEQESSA

T3: human amylin receptor (amylin 3(a) receptor: human calcitonin receptor co-expressed with RAMP-3) (human, UniProt P30988 25-474; O60896 24-148, limits assumed)
T3 sequence (looked up) 1: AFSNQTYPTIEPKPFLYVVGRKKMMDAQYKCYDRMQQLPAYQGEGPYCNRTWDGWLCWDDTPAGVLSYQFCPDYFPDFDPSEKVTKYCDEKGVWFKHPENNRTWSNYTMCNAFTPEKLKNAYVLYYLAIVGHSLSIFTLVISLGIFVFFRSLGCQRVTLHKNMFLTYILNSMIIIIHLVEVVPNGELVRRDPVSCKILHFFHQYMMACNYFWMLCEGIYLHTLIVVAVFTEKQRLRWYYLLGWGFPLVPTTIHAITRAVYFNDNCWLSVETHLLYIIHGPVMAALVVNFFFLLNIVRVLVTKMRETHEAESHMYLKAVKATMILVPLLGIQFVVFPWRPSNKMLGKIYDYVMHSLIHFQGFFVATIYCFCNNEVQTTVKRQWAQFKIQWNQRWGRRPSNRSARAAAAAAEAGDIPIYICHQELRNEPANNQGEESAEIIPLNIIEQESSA
T3 sequence (looked up) 2: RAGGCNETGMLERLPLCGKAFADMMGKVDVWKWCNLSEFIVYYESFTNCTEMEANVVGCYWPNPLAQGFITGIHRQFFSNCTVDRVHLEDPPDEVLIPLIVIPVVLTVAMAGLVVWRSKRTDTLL

T4: human calcitonin receptor (human, UniProt P30988 25-474)
T4 sequence (looked up): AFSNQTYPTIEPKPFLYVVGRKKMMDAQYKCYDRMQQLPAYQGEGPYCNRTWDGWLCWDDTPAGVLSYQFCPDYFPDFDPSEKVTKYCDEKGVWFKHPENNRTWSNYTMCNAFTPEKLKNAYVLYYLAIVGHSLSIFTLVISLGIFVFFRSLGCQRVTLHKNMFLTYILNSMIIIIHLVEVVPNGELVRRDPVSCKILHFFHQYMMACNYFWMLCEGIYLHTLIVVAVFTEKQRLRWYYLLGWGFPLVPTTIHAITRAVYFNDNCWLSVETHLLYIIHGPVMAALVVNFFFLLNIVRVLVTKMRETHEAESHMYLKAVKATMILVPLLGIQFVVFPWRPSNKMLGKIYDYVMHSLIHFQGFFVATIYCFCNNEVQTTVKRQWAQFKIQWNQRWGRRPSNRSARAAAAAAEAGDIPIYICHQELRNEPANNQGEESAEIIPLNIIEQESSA


Legend:
[1] = molecular target: T1, human amylin 3(a) receptor (human …); assay: cell-based or functional assay
[2] = molecular target: T2, human calcitonin receptor; assay: cell-based or functional assay
[3] = molecular target: T1, human amylin 3(a) receptor (human …); assay: SPA competition binding, displacement of 125I-rat amylin from membranes of Amylin 3(a)/CRE-luc BHK cells (Assay V)
Experimental: The binding assay was performed using scintillation proximity assay (SPA) beads (RPNQ0001) from PerkinElmer and cell membranes from the Amylin 3(a)/CRE-luc cells (as described in Assay (II)) were used. Membranes were prepared in the following way; the cells were rinsed with PBS and incubated with Versene for approximately 5 min before harvesting. The cells were flushed with PBS and the cell-suspension was centrifuged for 5 min at 1000 rpm. Cells were homogenized (ultrathurrax) in a buffer containing 20 mM Na-HEPES and 10 mM EDTA (pH 7.4) and centrifuged at 20.000 rpm for 15 min. The resulting pellet was resuspended, homogenized and centrifuged (20.000 rpm, 15 min) in a buffer containing 20 mM Na-HEPES and 0.1 mM EDTA (pH 7.4, buffer 2). The resulting pellet was resuspended in buffer 2 and protein concentration was measured (BCA protein Assay, Pierce). The homogenate was kept cold during the whole procedure. The membranes were kept at −80° C. until use. The assay was performed in a 384 well Optiplate (PerkinElmer) in a total volume of 40 ul. Membranes were mixed with SPA beads. Final concentration of membranes 35 ng/μL final and SPA beads was 0.05 mg/well. Test-compounds were dissolved in DMSO and further diluted in assay buffer (50 mM Hepes, pH 7.4, 1 mM CaCl2, 5 mM MgCl₂, 0.1% OA and 0.02% Tween20). […] The final mixture was incubated with shaking at 400 rpm for 120 min at 25° C. prior to centrifugation (1500 rpm, 10 min). Samples were analyzed on TopCounter™ (Packard). The IC₅₀ was calculated using (one site binding competition analysis) GraphPad Prism5 as a measure of receptor affinity.

[4] = molecular target: T3, human amylin receptor (amylin 3(a) …); assay: cell-based or functional assay
[5] = molecular target: T4, human calcitonin receptor; assay: cell-based or functional assay; remark: listed apart in the source

| Binder | Ratio hCT/hAmylin funct. [1] | hAmylin-R funct. EC50 [1] | hCTR funct. EC50 [2] | IC50 [3] | hAmylin-R funct. EC50 [4] | Ratio hCT/hAmylin funct. (hCTR EC50 against hAmylin-R EC50) [5] | hCTR funct. EC50 [5] |
| --- | --- | --- | --- | --- | --- | --- | --- |
| {C20 diacid-γGlu-AEEA-AEEA}-KCNTATCATQRLAEFLRHSSPNFGAIPSSTNVGSNTP-NH2 (disulfide 2-7; SMILES CC[C@H](C)[C@H](NC(=O)[C@H](C)NC(=O)CNC(=O)[C@H](Cc1ccccc1)NC(=O)[C@H](CC(N)=O)NC(=O)[C@@H]1CCCN1C(=O)[C@H](CO)NC(=O)[C@H](CO)NC(=O)[C@H](Cc1c[nH]cn1)NC(=O)[C@H](CCCNC(=N)N)NC(=O)[C@H](CC(C)C)NC(=O)[C@H](Cc1ccccc1)NC(=O)[C@H](CCC(=O)O)NC(=O)[C@H](C)NC(=O)[C@H](CC(C)C)NC(=O)[C@H](CCCNC(=N)N)NC(=O)[C@H](CCC(N)=O)NC(=O)[C@@H](NC(=O)[C@H](C)NC(=O)[C@@H]1CSSC[C@H](NC(=O)[C@H](CCCCN)NC(=O)COCCOCCNC(=O)COCCOCCNC(=O)CC[C@H](NC(=O)CCCCCCCCCCCCCCCCCCC(=O)O)C(=O)O)C(=O)N[C@@H](CC(N)=O)C(=O)N[C@@H]([C@@H](C)O)C(=O)N[C@@H](C)C(=O)N[C@@H]([C@@H](C)O)C(=O)N1)[C@@H](C)O)C(=O)N1CCC[C@H]1C(=O)N[C@@H](CO)C(=O)N[C@@H](CO)C(=O)N[C@H](C(=O)N[C@@H](CC(N)=O)C(=O)N[C@H](C(=O)NCC(=O)N[C@@H](CO)C(=O)N[C@@H](CC(N)=O)C(=O)N[C@H](C(=O)N1CCC[C@H]1C(N)=O)[C@@H](C)O)C(C)C)[C@@H](C)O, also called compound 20) | 3.6 | 80 pM | 285 pM | 217 pM |  |  |  |
| {C20 diacid-γGlu}-KCNTATCATQRLAEFLRHSSPNFGPILPPTNVGSNTP-NH2 (disulfide 2-7; SMILES CC[C@H](C)[C@H](NC(=O)[C@@H]1CCCN1C(=O)CNC(=O)[C@H](Cc1ccccc1)NC(=O)[C@H](CC(N)=O)NC(=O)[C@@H]1CCCN1C(=O)[C@H](CO)NC(=O)[C@H](CO)NC(=O)[C@H](Cc1c[nH]cn1)NC(=O)[C@H](CCCNC(=N)N)NC(=O)[C@H](CC(C)C)NC(=O)[C@H](Cc1ccccc1)NC(=O)[C@H](CCC(=O)O)NC(=O)[C@H](C)NC(=O)[C@H](CC(C)C)NC(=O)[C@H](CCCNC(=N)N)NC(=O)[C@H](CCC(N)=O)NC(=O)[C@@H](NC(=O)[C@H](C)NC(=O)[C@@H]1CSSC[C@H](NC(=O)[C@H](CCCCN)NC(=O)CC[C@H](NC(=O)CCCCCCCCCCCCCCCCCCC(=O)O)C(=O)O)C(=O)N[C@@H](CC(N)=O)C(=O)N[C@@H]([C@@H](C)O)C(=O)N[C@@H](C)C(=O)N[C@@H]([C@@H](C)O)C(=O)N1)[C@@H](C)O)C(=O)N[C@@H](CC(C)C)C(=O)N1CCC[C@H]1C(=O)N1CCC[C@H]1C(=O)N[C@H](C(=O)N[C@@H](CC(N)=O)C(=O)N[C@H](C(=O)NCC(=O)N[C@@H](CO)C(=O)N[C@@H](CC(N)=O)C(=O)N[C@H](C(=O)N1CCC[C@H]1C(N)=O)[C@@H](C)O)C(C)C)[C@@H](C)O, also called compound 4) | 1.2 | 60 pM | 70 pM | 321 pM |  |  |  |
| K([γGlu-C20 diacid])CNTATCATQRLANFLRHSSPNFGAIPSSTNVGSNTY-NH2 (disulfide 2-7; N-terminus assumed; SMILES CC[C@H](C)[C@H](NC(=O)[C@H](C)NC(=O)CNC(=O)[C@H](Cc1ccccc1)NC(=O)[C@H](CC(N)=O)NC(=O)[C@@H]1CCCN1C(=O)[C@H](CO)NC(=O)[C@H](CO)NC(=O)[C@H](Cc1c[nH]cn1)NC(=O)[C@H](CCCNC(=N)N)NC(=O)[C@H](CC(C)C)NC(=O)[C@H](Cc1ccccc1)NC(=O)[C@H](CC(N)=O)NC(=O)[C@H](C)NC(=O)[C@H](CC(C)C)NC(=O)[C@H](CCCNC(=N)N)NC(=O)[C@H](CCC(N)=O)NC(=O)[C@@H](NC(=O)[C@H](C)NC(=O)[C@@H]1CSSC[C@H](NC(=O)[C@@H](N)CCCCNC(=O)CC[C@H](NC(=O)CCCCCCCCCCCCCCCCCCC(=O)O)C(=O)O)C(=O)N[C@@H](CC(N)=O)C(=O)N[C@@H]([C@@H](C)O)C(=O)N[C@@H](C)C(=O)N[C@@H]([C@@H](C)O)C(=O)N1)[C@@H](C)O)C(=O)N1CCC[C@H]1C(=O)N[C@@H](CO)C(=O)N[C@@H](CO)C(=O)N[C@H](C(=O)N[C@@H](CC(N)=O)C(=O)N[C@H](C(=O)NCC(=O)N[C@@H](CO)C(=O)N[C@@H](CC(N)=O)C(=O)N[C@H](C(=O)N[C@@H](Cc1ccc(O)cc1)C(N)=O)[C@@H](C)O)C(C)C)[C@@H](C)O, also called compound 48) [N^ε1-[(4S)-4-carboxy-4-(19-carboxynonadecanoylamino)butanoyl]-[Arg17,Pro21,Pro27]-h-amylin] |  |  |  |  | 116 pM | 17 | 1970 pM |
